The results in this text go back to the DeepSol protein solubility set.

This series in a line: soluble on expression in E. coli; label from the status in PepcDB or PDB records.
As to “MCGRIAQKSAPEDYVEILWPNARLIFDDVAGPRYNIPPGTKPLTMHRLAGGFEVDRQWWTWRPSGSKYAMNCARLDKILGNKWPWKLLTARGRILVPADGWYEWKALDSSPKPAKQPYFIHGAGPLLFAGLSAWRPGAEMDEAHGFAIVTDDAQGGMVDVHDRRPVALPPELAREWVDPATPVARAMEILRAGLPETAFSWHPVRQEVGSSKYQLPDAIDPILEHHHHHH”, the “soluble on expression in E. coli” value is reported as “soluble”.

With “MSLDSYRTARLMQEGVTYPVIVRPHNQILENRINRIIRETAEELLPSGRYRTMNIITAASEYETTVNKNEILSIRFENYYYPEMMASGITVVRAVTLNLVTGRRYRLKDLFIPGIDYEDYLNRLIERQIEERDIPLINDFPGITGNEVFYLTEGELVIVYQRYELTPGYYGVLEFEIPYEELQPLIDETSPIYMIAQNSEGHHHHHH”, the “soluble on expression in E. coli” value is on record as “soluble”.

For the sequence “MKKRHLLSLLALGISTACYGETYPAPIGPSQSDFGGVGLLQTPTARMAREGELSLNYRDNDQYRYYSASVQLFPWLETTLRYTDVRTRQYSSVEAFSGDQTYKDKAFDLKLRLWEESYWLPQVAVGARDIGGTGLFDAEYLVASKAWGPFDFTLGLGWGYLGTSGNVKNPLCSASDKYCYRDNSYKQAGSIDGSQMFHGPASLFGGVEYQTPWQPLRLKLEYEGNNYQQDFAGKLEQKSKFNVGAIYRVTDWADVNLSYERGNTFMFGVTLRTNFNDLRPSYNDNARPQYQPQPQDAILQHSVVANQLTLLKYNAGLADPQIQAKGDTLYVTGEQVKYRDSREGIIRANRIVMNDLPDGIKTIRITENRLNMPQVTTETDVASLKNHLAGEPLGHETTLAQKRVEPVVPQSTEQGWYIDKSRFDFHIDPVLNQSVGGPENFYMYQLGVMGTADLWLTDHLLTTGSLFANLANNYDKFNYTNPPQDSHLPRVRTHVREYVQNDVYVNNLQANYFQHLGNGFYGQVYGGYLETMFGGAGAEVLYRPLDSNWAFGLDANYVKQRDWRSAKDMMKFTDYSVKTGHLTAYWTPSFAQDVLVKASVGQYLAGDKGGTLEIAKRFDSGVVVGGYATITNVSKEEYGEGDFTKGVYVSVPLDLFSSGPTRSRAAIGWTPLTRDGGQQLGRKFQLYDMTSDRSVNFRLEHHHHHH”, the “soluble on expression in E. coli” value is “not soluble”.

For “MKVRNVIIGFMVASLTGCSMGHRDPVEIKQTLDKSINENGGLLLADLPASVQADLMPELNTPHVEVEEPVKRFRVRANGVGAKAFFTSLVKGTEYSVVIHPQVSGRITMNLSDVTMDDVLSSVEDLYGYDIVKAGKVLQVYPATIRTETIPVDYLQLTRKGRSLTTITTGSITNSDNNSSNNNNSSSKSNNNSSSSSSSATGGTEIETTSESDFWKELETAISVMIGNGADRSVVVSPQASVVTITASPDELRKVKQFLGTSHKRLQRQVILEAKLLEVTLSDGYQQGINWSNLTASLGGTDVVFGQTSGLVQGALPGMDTIGTLLGGQTNITVSDGNFQAVLSFMDTQGDLNVLSSPRVTAANNQKAVIKVGRDEYYVTEVSSVTGSGDNSNASPEVTLTPFFSGISLDVTPQIDDKGNVMLHVHPSVIDVENEVKEIDLGDVGGVLKLPLAKSSIRESDSVIRAKSGDVVVIGGLMKSQTVDQVSKVPLLGDVPALGHLFRNVSQLTQKTELVILLKPTVVGVDTWQEELERSRDLLQEWFPDELEHHHHHH”, the “soluble on expression in E. coli” value is listed as “soluble”.

For the sequence “MPKPVIAIVGRPNVGKSTIFNRIVGERVSIVEDIPGVTRDRIYSAGEWLNHEFNIIDTGGIDIGDEPFLTQIRQQAEVAIDEADVIIFMTNGRDGVTAADEEVAKILYRSNKPVVLAVNKVDNPEMRSDIYDFYALGFGEPFPISGTHGLGLGDLLDEAAQHFPKIEEDGYDEDTIRFSLIGRPNVGKSSLVNALLGQERVIVSNVAGTTRDAVDTPYSKDGKDYVIIDTAGMRKKGKVYESTEKYSVLRALRAIERSDVVLVVLDGEEGIIEQDKKIAGYAHDSGRAVVIVVNKWDAVKKDEKTMKAFEENIRAHFQFLEYAPIVFLSAKTRKRTQTLIPVIDEVNESHSIRIQTNVLNDVIMDAVAMNPTPTHNGSRLKIFYATQVAVKPPTFVVFVNDPELLHFSYERFLKNRLRESFGFVGTPIHIIARARD”, the “soluble on expression in E. coli” value is given as “soluble”.

Take “MANPLYQKHIISINDLSRDDLNLVLATAAKLKANPQPELLKHKVIASCFFEASTRTRLSFETSMHRLGASVVGFSDSANTSLGKKGETLADTISVISTYVDAIVMRHPQEGAARLATEFSGNVPVLNAGDGSNQHPTQTLLDLFTIQETQGRLDNLHVAMVGDLKYGRTVHSLTQALAKFDGNRFYFIAPDALAMPQYILDMLDEKGIAWSLHSSIEEVMAEVDILYMTRVQKERLDPSEYANVKAQFVLRASDLHNAKANMKVLHPLPRVDEIATDVDKTPHAWYFQQAGNGIFARQALLALVLNRDLVL”: the “soluble on expression in E. coli” value is given as “soluble”.

Take “MGSDKIHHHHHHMLERTTRHVRPSLDGQAFYERCTQILSELDDAESSLRNVIAQPRGLLRVDLSGAHATKIVLPNIDQFHELYPDIELVISTGDRLVDLIREGIDCVVRAGRLDDSTLIARHLVDMPQVICASPDYLNKHGTPEQPEDLLSHYCVNFFSTSGGRNYPFELMVNGKKQDYFLKSWIAVNDAENYVLSALQGAGLIQVPHYHVANELKNGRLVEVLSEWESPKMSVSALYPQHRQLSPRVRVFVAWLSELYTGYFANFEYPQK”: the “soluble on expression in E. coli” value was “not soluble”.

For “FAADLNSNLNLFYTPSEIVNGKTDTGVKPEAGQRIRVGGMVTVGSMVRDPNSLHVQFAVHDSLGGEILVTYDDLLPDLFREGQGIVAQGVLGEDGKLAATEVLAKHDENYMPPEVAEAMGQKHEKLDYSQQKSATQ”, the “soluble on expression in E. coli” value is “soluble”.

Turning to “MGDIMQQQLTQALEAYLQKLDDEARIEAINAFRQVLHHYSPFRSQPVDCVLWVKQELVAPNDYNPNNVAPPEKRLLQTSLEADGFTQPVVVIQQRPQAYTIVDGFHRHELACSKAALKKTLKGYLPVTCLTSEAASRDGLMAATIRHNRARGRHQIHAMSEIVRELTQLGWTPQKIGKELGMDADEVLRLKQISGLTEMFAGRQFSQAWTIK”, the “soluble on expression in E. coli” value is listed as “not soluble”.

For the sequence “MLELLYTALLYLIQPLIWIRLWVRGRKAPAYRKRWGERYGFYRHPLKPGGIMLHSVSVGETLAAIPLVRALRHRYPDLPITVTTMTPTGSERVQSAFGKDVQHVYLPYDLPDALNRFLNKVDPKLVLIMETELWPNLIAALHKRKIPLVIANARLSARSAAGYAKLGKFVRRLLRRITLIAAQNEEDGARFVALGAKNNQVTVTGSLKFDISVTPQLAAKAVTLRRQWAPHRPVWIATSTHEGEESVVIAAHQALLQQFPNLLLILVPRHPERFPDAINLVRQAGLSYITRSSGEVPSTSTQVVVGDTMGELMLLYGIADLAFVGGSLVERGGHNPLEAAAHAIPVLMGPHTFNFKDICARLEQASGLITVTDATTLAKEVSSLLTDADYRSFYGRHAVEVLYQNQGALQRLLQLLEPYLPPKTHLEHHHHHH”, the “soluble on expression in E. coli” value is reported as “soluble”.

Regarding “MASKPGERKTQILHTLAEMLEQPHAARITTSALAARMQVSEAALYRHFASKAQMFEGLIEFIETSIFTVVNQIAVSEPYGMGQARKTVAMLLAFAERNRGITRVLTGDALVTEDNRLQERINHINDRIEASLKQCLRVAVSDGALPADANIAAHASLLTHLVLGRWLRYAQSGWRVAPTTHLEEHLRLALG”, the “soluble on expression in E. coli” value is recorded as “not soluble”.

Take “VTGVASAMAERLKEDGNNCFKKERFGAAIDAYTEAIALSPNVPAYWTNRALCHMKRKDWTKVEEDCRKAIQLVHNSVKAHYMLGLALLQKKEFTNGVKELQRALDLGRC”: the “soluble on expression in E. coli” value is recorded as “not soluble”.

Regarding “MGSSHHHHHHGKTIFVIVPTNEEQVAFLEALAKQDELNFDWQNPPTEPGQPVVILIPSDMVEWFLEMLKAKGIPFTVYVEEGGSENLYFQGGGGGGRRGFTETVSPVAGFHIFTLFLLRELIEPWSQGQVRAQAARAREAQRRSFTTDIAMQYREKLD”, the “soluble on expression in E. coli” value was “soluble”.

For the sequence “MDTLPECPITNTASLLPHSGRMVLIDRITRYGDDFVEAGAQVSPNHILLLDDKLPYTAFIELMAQAVGAYAGIQARKNARSVRLGFLLGTRKLEIFAQSVPIGTHLLATAHMSIQDAGGMGVFDCELRWTDAPETSSETLPSDGILARASLNVYSPEHPAGTTDAVLEHHHHHH”, the “soluble on expression in E. coli” value is given as “not soluble”.
